Data on one molecule can be found in US9567641B2, “Combination therapy for the treatment of cancer using an anti-C-met antibody” (SAMSUNG ELECTRONICS CO., LTD., priority 2013, dated 2017).

Format in all cases: cell-based
Experiment [1] concerns HT29 colorectal cancer cell line. In words: Cell viability, CellTiter Glo, combination with L3-1Y/IgG2 antibody. The conditions noted are these: L3-1Y/IgG2 antibody alone (negative control siRNA), 0-2 ug/ml, 72 h. How it is done:
The efficacy of the combination administration of FGFR3 siRNA and L3-1Y/IgG2 antibody was examined in a colorectal cancer cell line on which the anti-c-Met antibody has no effects. For this, HT29 (ATCC, HTB-38) cells were used. As a control group, All Negative control siRNA (Qiagen, cat. no. 1027281) was used, and as a target siRNA, a mixture of two kinds of siRNAs (see Table 7) that had effects during the screening was used. Transfection was carried out by the same procedures as Example 3.1 and after 24 hours, the cultured cells were treated with L3-1Y/IgG2 antibody at 0 ug/ml, 0.016 ug/ml, 0.08 ug/ml, 0.4 ug/ml, and 2 ug/ml, respectively.
72 hours later after the treatment, 100 uL of CellTiter Glo solution (Promega, G7572) was added to each well, which was allowed to stay at a room temperature for 30 min. The number of cells was counted via luminescence signals, which were recorded using Envision 2104 Multi-label Reader (Perkin Elmer).

Experiment [2] has as its system EBC1 lung cancer cell line. The experiment can be described thus: Cell viability, CellTiter Blue, combination with L3-1Y/IgG2 antibody. The conditions noted are these: for concentration at which the L3-1Y/IgG2 antibody showed the maximized efficacy: 5 days. The protocol: The efficacy of the combination administration of RAF1 siRNA and L3-1Y/IgG2 antibody was examined in lung cancer cell line on which the anti-c-Met antibody has an effect. For this, EBC1 (JCRB, JCRB0820) cells were used. As a control group, All Negative control siRNA (Qiagen, cat. no. 1027281) was used, and as a target siRNA, a mixture of two kinds of siRNAs (see Table 7) that had effects during the screening was used. Transfection was carried out by the same procedures as Example 3.1 and after 24 hours, the cultured cells were treated with L3-1Y/IgG2 antibody at 0 ug/ml, 0.016 ug/ml, 0.08 ug/ml, 0.4 ug/ml, or 2 ug/ml. After 5 days of treatment, for cell number counting, 20 ul of a diluting solution of CellTiter Blue (Promega, G8081) and HBSS at 1:1 was added to each well, which was incubated at 37° C. for 4 hours. Then, the number of cells was counted via fluorescence signals (560/590 nm), which were measured using Envision 2104 Multi-label Reader (Perkin Elmer).

For experiment [3], the system named is HCC1806 breast cancer cells. In words: Cell viability, CellTiter Glo, combination with L3-1Y/IgG2 antibody. The protocol:
(§1) The efficacy of the combination administration of ITGB3 siRNA and L3-1Y/IgG2 antibody was examined in a breast cancer cell line on which the anti-c-Met antibody alone has no effects. For this, HCC1806 (ATCC, CRL-2335) and HCC1954 (ATCC, CRL-2338) cells were used.
(§2) As a control group, All Negative control siRNA (Qiagen, cat. no. 1027281) was used, and as a target siRNA, a mixture of two kinds of siRNAs (see Table 7) that had effects during the screening was used. Transfection was carried out by the same procedures as Example 3.1 and after 24 hours, the cultured cells were treated with L3-1Y/IgG2 antibody at 0 ug/ml, 0.016 ug/ml, 0.08 ug/ml, 0.4 ug/ml, or 2 ug/ml. 72 hours later after the treatment, 100 uL of CellTiter Glo solution (Promega, G7572) was added to each well, which was allowed to stay at a room temperature for 30 min. The number of cells was counted via luminescence signals, which were recorded using Envision 2104 Multi-label Reader (Perkin Elmer).
To verify the effect of the combination therapy using ITGB3 inhibitor and anti-c-Met antibody in breast cancer cells on which the anti-c-Met antibody has no effects, HCC1806 (ATCC, CRL-2335) cells were used. The HCC 1806 cells are a cell line known to have high amounts of c-Met.
5000 cells of HCC1806 cells were seeded onto a 96-well plate, and 24 hours after, the plate was treated with L3-1Y/IgG2 antibody and an ITGB3 inhibitor, cilengitide (Merck KGaA, EMD 121974). 72 hours later after the treatment, a change in the number of cells was measured using CellTiter Glo assay. Cilengitide was treated at a fixed concentration of 10 uM, and the L3-1Y/IgG2 antibody was treated by ⅕ dilution each time starting from 2 ug/ml. For comparison, the same test was conducted using L3-1Y/IgG2 antibody alone.
The efficacy of combination administration was examined in a breast cancer cell line on which the anti-c-Met antibody has no effects. For this, HCC1806 (ATCC, CRL-2335) cells were used.
5000 HCC1806 cells were seeded onto a 96-well plate and 24 hours after, the plate was treated with L3-1Y/IgG2 antibody and an AKT inhibitor, MK-2206 (Merck & Co Inc) and 72 hours later after the antibody treatment, a change in the number of cells was measured using CellTiter Glo assay. MK-2206 was treated at a fixed concentration of 10 uM, and the L3-1Y/IgG2 antibody was treated by ⅕ dilution each time starting from 2 ug/ml. For comparison, the same test was conducted using L3-1Y/IgG2 antibody alone.

In experiment [4] the test system is HCC1954 breast cancer cells. The description is as above. The conditions noted are these: L3-1Y/IgG2 antibody alone (negative control siRNA). The protocol: as §1, §2

B1: L3-1Y/IgG2: anti-c-Met antibody: huAbF46-H4-A1 heavy chain variable region, human IgG2 hinge and constant region, kappa light chain with H36Y (antibody)
heavy: EVQLVESGGGLVQPGGSLRLSCAASGFTFTDYYMSWVRQAPGKGLEWLGFIRNKANGYTTEYSASVKGRFTISRDNSKNTLYLQMNSLRAEDTAVYYCARDNWFAYWGQGTLVTVSSASTKGPSVFPLAPCSRSTSESTAALGCLVKDYFPEPVTVSWNSGALTSGVHTFPAVLQSSGLYSLSSVVTVPSSNFGTQTYTCNVDHKPSNTKVDKTVERKCCVECPPCPAPPVAGPSVFLFPPKPKDTLMISRTPEVTCVVVDVSHEDPEVQFNWYVDGVEVHNAKTKPREEQFNSTFRVVSVLTVVHQDWLNGKEYKCKVSNKGLPAPIEKTISKTKGQPREPQVYTLPPSREEMTKNQVSLTCLVKGFYPSDIAVEWESNGQPENNYKTTPPMLDSDGSFFLYSKLTVDKSRWQQGNVFSCSVMHEALHNHYTQKSLSLSPGK
light: DIQMTQSPSSLSASVGDRVTITCKSSQSLLASGNQNNYLAWYQQKPGKAPKMLIIWASTRVSGVPSRFSGSGSGTDFTLTISSLQPEDFATYYCQQSYSRPYTFGQGTKVEIKRTVAAPSVFIFPPSDEQLKSGTASVVCLLNNFYPREAKVQWKVDNALQSGNSQESVTEQDSKDSTYSLSSTLTLSKADYEKHKVYACEVTHQGLSSPVTKSFNRGEC
For B1, the “cancer cell growth inhibitory efficacy (cell viability)” value in experiment [1], in experiment [3] (L3-1Y/IgG2 antibody alone (negative control siRNA)) and in experiment [4] was “did not occur” in each case. The “concentration at which the L3-1Y/IgG2 antibody showed the maximized efficacy” value in experiment [2] (co-treated with RAF1 siRNA) was found to be 0.016 µg/mL; in experiment [2] (without RAF1 siRNA (negative control siRNA)), 0.08 µg/mL. Besides, the “decrease of the concentration of maximized efficacy by RAF1 siRNA co-treatment” value in experiment [2] (with versus without RAF1 siRNA) is given as “⅕”. For the same molecule, the “growth inhibitory effect (cell viability)” value in experiment [3] (L3-1Y/IgG2 antibody alone (1/5 dilutions from 2 ug/ml), 72 h) is “did not occur”.
